This assay has as its target human FcRn (human) (UniProt P55899). Description: SPR Biacore 3000, antibody immobilised on CM5, hFcRn analyte, pH 7.5, 25 C, 1:1 fit. (In general: Surface plasmon resonance follows binding to a sensor surface in real time, without labels.)

pKd: −log10 of the molar value.

human FcRn (human), sequence (P55899 24-297 limits assumed, chain 1 of 2): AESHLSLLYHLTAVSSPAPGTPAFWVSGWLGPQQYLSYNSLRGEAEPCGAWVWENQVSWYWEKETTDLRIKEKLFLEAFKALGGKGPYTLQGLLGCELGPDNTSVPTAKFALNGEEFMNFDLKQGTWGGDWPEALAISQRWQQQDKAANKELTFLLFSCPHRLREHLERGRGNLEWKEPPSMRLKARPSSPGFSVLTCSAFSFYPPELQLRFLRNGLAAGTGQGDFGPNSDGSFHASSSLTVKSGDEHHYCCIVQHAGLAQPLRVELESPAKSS
human FcRn (human), sequence (b2m, as listed by the source limits assumed, chain 2 of 2): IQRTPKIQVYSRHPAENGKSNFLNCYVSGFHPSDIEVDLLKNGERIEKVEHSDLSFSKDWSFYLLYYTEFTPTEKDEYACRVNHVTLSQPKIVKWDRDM

One may read the pKd as the Kd on a negative log10 scale, so that one unit is a factor of ten. Lower therefore signals a large Kd. DX-2504 (antibody) had a pKd of 8.72.

The values above are taken from patent publication US20240124593A1.
